± gives the standard deviation of the averaged measurements.
Test system: ATP
Assay: switch fluorescence ratio, 500 uM ATP over buffer (Cy3 cluster intensity, sum of 5 cycles each) (fold (ratio)); higher = stronger signal-on switching upon ATP binding; sequences stand for … in TCGTCGGCAGCGTCAGATGTGTATAAGAGACAGTTTTTTTTTTTTTTTTTTTTTTTTT…TC
Conditions: aptamer strand: ATP DNA aptamer (quencher-CACCTGGGGGAGTATTGCGGAGGAAGG + anchor), 100 nM annealed; ATP concentration: 500 uM
Outline: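 Clusters carrying Cy3-labelled switching strands on a modified Illumina MiSeq flow-cell were annealed to 100 nM quencher-labelled ATP aptamer and imaged in selection buffer. They were imaged again after 15 min with 500 uM ATP at 22 °C, over five buffer/ATP cycles with NaOH stripping and re-annealing in between. For each cluster, the fluorescence ratio is the summed Cy3 intensity of the target cycles divided by that of the buffer cycles, averaged per switch-domain sequence. Clusters outside 100-1000 RFU were left out.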
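Note: ATP exposure 15 min at 22 °C before imaging.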

Sequence	switch fluorescence ratio
CTTGATTTGA	1.001 ± 0.0089
CTTGCATTTT	1.04 ± 0.031
CTTGCCGCGC	1.13 ± 0.017
CTTGCGTCAC	1.18 ± 0.044
CTTGCTGGTT	0.999 ± 0.028
CTTGGAGGGA	1.02 ± 0.03
CTTGGAGTTT	1 ± 0.034
CTTGGGAATT	0.979 ± 0.044
CTTGGGAGAA	0.9961 ± 0.0032
CTTGGGCCCT	0.979 ± 0.033
CTTGGGTTGG	0.997 ± 0.028
CTTGGTCTGA	0.994 ± 0.024
CTTGGTGGAC	0.97 ± 0.048
CTTGGTTAGT	1.03 ± 0.056
CTTGTAAAGG	0.9825 ± 0.00043
CTTGTAGGGT	1.01 ± 0.021
CTTGTATCGT	0.971 ± 0.015
CTTGTATTGG	1.03 ± 0.072
CTTGTCATGA	1.02 ± 0.017
CTTGTTATTG	0.9602 ± 0.0071
CTTGTTGATG	1 ± 0.036
CTTGTTGTTC	0.9981 ± 0.0063
CTTTAATCC	1.27 ± 0.48

Sequence	switch fluorescence ratio
CTTTCATTTT	0.972 ± 0.036
CTTTCCGAAG	2.72 ± 0.03
CTTTCGTCTG	1.01 ± 0.035
CTTTCGTGGA	1 ± 0.022
CTTTCTAGCG	0.995 ± 0.032
CTTTCTATGT	0.986 ± 0.029
CTTTCTTG	1.01 ± 0.043
CTTTGAATGT	0.983 ± 0.03
CTTTGAGGTG	1.04 ± 0.069
CTTTGGCAGA	1.03 ± 0.043
CTTTGGCAGC	1.06 ± 0.017
CTTTGGCCGG	1.011 ± 0.0087
CTTTGGCGCC	0.986 ± 0.014
CTTTGGCTGA	0.998 ± 0.025
CTTTGGGGTT	1.01 ± 0.032
CTTTGTTGG	0.9646 ± 0.0024
CTTTTAATTT	1.04 ± 0.022
CTTTTAGCTG	1 ± 0.019
CTTTTAGGCT	1.02 ± 0.092
CTTTTAGTTA	1.01 ± 0.015
CTTTTATTTT	1.03 ± 0.012
CTTTTCATTG	1.06 ± 0.089
CTTTTCGGCT	1.04 ± 0.028

Sequence	switch fluorescence ratio
CTTTTCGGGT	0.964 ± 0.033
CTTTTCTTGG	0.991 ± 0.03
CTTTTGACTG	1.05 ± 0.043
CTTTTGGGAC	0.987 ± 0.025
CTTTTTAATG	0.98 ± 0.028
CTTTTTAGGT	0.998 ± 0.012
CTTTTTTATT	1.01 ± 0.0085
CTTTTTTGGT	1.03 ± 0.015
CTTTTTTTAG	1.0383 ± 0.001
CTTTTTTTGT	0.995 ± 0.025
GAAAAAAGGG	1.11 ± 0.11
GAAAAAATCC	1.29 ± 0.34
GAAAAAGCCG	1.014 ± 0.0078
GAAAAAGGAA	1.024 ± 0.0041
GAAAAAGGGG	1.01 ± 0.019
GAAAAATTGG	1.03 ± 0.03
GAAAACGGGG	1.01 ± 0.02
GAAAAGGTTC	1.04 ± 0.044
GAAAATGCAT	0.99 ± 0.013
GAAAATGTCG	0.988 ± 0.07
GAAAATGTTG	0.991 ± 0.033
GAAACAATTG	0.9897 ± 0.0075
GAAACAGGCA	0.963 ± 0.017

Sequence	switch fluorescence ratio
GAAACAGGGA	1.06 ± 0.057
GAAACATACG	1.33 ± 0.026
GAAAGATAAG	0.985 ± 0.014
GAAAGCGCGT	0.965 ± 0.028
GAAAGGAGGG	1.03 ± 0.065
GAAAGGATTA	0.995 ± 0.063
GAAAGGGATT	1 ± 0.048
GAAAGGGGTA	1.01 ± 0.046
GAAAGGGTTG	0.968 ± 0.035
GAAAGTGTGG	0.971 ± 0.03
GAAAGTGTTG	0.9722 ± 0.0058
GAAAGTTCGC	1.02 ± 0.038
GAAATACAAC	1.04 ± 0.028
GAAATACGCT	1.08 ± 0.022
GAAATATCAG	1.01 ± 0.029
GAAATATGTT	0.999 ± 0.014
GAAATATTAG	1.02 ± 0.032
GAAATGGTAG	0.99 ± 0.025
GAAATGTGGT	0.997 ± 0.02
GAAATGTTAG	0.966 ± 0.025
GAAATGTTGG	0.981 ± 0.024
GAAATTAACT	1.01 ± 0.033
GAAATTGACC	1.02 ± 0.038

Sequence	switch fluorescence ratio
GAACATGCAG	1.01 ± 0.03
GAACCAGTAC	1.82 ± 0.032
GAACCAGTGC	1.23 ± 0.083
GAACCTGGAT	1.16 ± 0.038
GAACCTTCGT	1.05 ± 0.096
GAACGAACGG	1.08 ± 0.06
GAACGAAGCA	1.84 ± 0.051
GAACGAGGGG	1.01 ± 0.019
GAACGAGGGT	0.9676 ± 0.0013
GAACGATACA	1.334 ± 0.012
GAACGGAGCT	1.09 ± 0.052
GAACGGAGGC	0.978 ± 0.016
GAACGGTGTG	0.996 ± 0.0057
GAACGTACAA	1.587 ± 0.015
GAACGTGGAG	0.999 ± 0.02
GAACTAAGCT	1.01 ± 0.028
GAACTAGGTG	1.444 ± 0.0058
GAACTCGGCG	1.02 ± 0.031
GAACTCGGTC	0.994 ± 0.01
GAACTTAGAT	1.01 ± 0.04
GAAGAATCTG	1.03 ± 0.016
GAAGAATTGT	0.991 ± 0.038
GAAGACCGGT	0.985 ± 0.047

Sequence	switch fluorescence ratio
GAAGACTACG	1.04 ± 0.038
GAAGAGCCTA	0.986 ± 0.044
GAAGATTGGG	0.998 ± 0.053
GAAGCAGGGG	2.26 ± 0.74
GAAGCATAAT	1.27 ± 0.12
GAAGCCGGAC	1.12 ± 0.035
GAAGCGCCGG	1.01 ± 0.028
GAAGCGGATG	1.01 ± 0.031
GAAGCTAGTA	1.02 ± 0.024
GAAGCTGAAT	1.01 ± 0.0029
GAAGCTGCCA	1.031 ± 0.0067
GAAGCTTGGG	1.04 ± 0.025
GAAGGAAAGA	1.02 ± 0.037
GAAGGAACCG	1.025 ± 0.0063
GAAGGAATAG	1.66 ± 0.92
GAAGGATATT	1.018 ± 0.0039
GAAGGCAGGG	0.986 ± 0.029
GAAGGCATTC	1.06 ± 0.031
GAAGGCCCTG	1.01 ± 0.04
GAAGGCCTGT	0.9745 ± 0.0097
GAAGGCTAAT	0.974 ± 0.022
GAAGGCTCCG	1.04 ± 0.014
GAAGGGATGC	1.26 ± 0.073

Sequence	switch fluorescence ratio
GAAGGGCATT	0.9963 ± 0.0015
GAAGGGCGGC	1.01 ± 0.024
GAAGGGGAAA	1 ± 0.045
GAAGGGGAAG	0.998 ± 0.0043
GAAGGGGCAA	1.18 ± 0.13
GAAGGGGGAC	1.01 ± 0.046
GAAGGGGGGC	1.05 ± 0.18
GAAGGGGTGT	1.01 ± 0.031
GAAGGTGAGT	1.03 ± 0.014
GAAGGTGATC	1.01 ± 0.012
GAAGGTGTGC	1.07 ± 0.1
GAAGGTTTGT	1.002 ± 0.01
GAAGTAACAG	1.03 ± 0.027
GAAGTAGAGT	0.963 ± 0.028
GAAGTAGCCT	0.9985 ± 0.0086
GAAGTGAGGT	1.01 ± 0.016
GAAGTGCGAG	1.004 ± 0.008
GAAGTGGGGT	0.995 ± 0.015
GAAGTGTGAA	1 ± 0.022

Source: the supplement of paper PMC10126150
